Holding throughout (details): remark: other sources report otherwise
Assay [1] addresses T1, recombinant soluble homotrimeric HA of A/Egypt/3300-NAMRU3/08 (H5N1) (Influenza A virus A/Egypt/3300-NAMRU3/2008(H5N1)). The experiment in a line: HA microarray, BCC supernatant.
In assay [2] the target is recombinant soluble homotrimeric HA, A/Anhui/1/05 H5N1 (Influenza A virus A/Anhui/1/2005(H5N1)). In words: microarray, transfection SN IgG, trimeric HA.
The target in assay [3] is recombinant soluble homotrimeric HA, A/California/4/09 H1N1 (Influenza A virus A/California/04/2009(H1N1)). The experiment in a line: microarray, transfection SN IgG, trimeric HA.
Assay [4] deals with recombinant soluble homotrimeric HA, A/Egypt/3300-NAMRU3/08 H5N1 (Influenza A virus A/Egypt/3300-NAMRU3/2008(H5N1)). The experiment in a line: microarray, transfection SN IgG, trimeric HA.
Assay [5] deals with recombinant soluble homotrimeric HA, A/Hong Kong/156/97 H5N1 (Influenza A virus A/Hong Kong/156/97 (H5N1)). In words: microarray, transfection SN IgG, trimeric HA.
The target of assay [6] is recombinant soluble homotrimeric HA, A/Indonesia/5/05 H5N1 (Influenza A virus A/Indonesia/5/2005(H5N1)). In words: microarray, transfection SN IgG, trimeric HA.
Assay [7] concerns the target recombinant soluble homotrimeric HA, A/Japan/305/57 H2N2 (Influenza A virus A/Japan/305/1957(H2N2)). The experiment in a line: microarray, transfection SN IgG, trimeric HA.
The target of assay [8] is recombinant soluble homotrimeric HA, A/Solomon Islands/3/06 H1N1 (Influenza A virus A/Solomon Islands/3/2006(H1N1)). In words: microarray, transfection SN IgG, trimeric HA.
Assay [9] has as its target recombinant soluble homotrimeric HA, A/South Carolina/1/18 H1N1 (Influenza A virus A/South Carolina/1/18 (H1N1)). In words: microarray, transfection SN IgG, trimeric HA.
For assay [10], the target named is recombinant soluble homotrimeric HA, A/Vietnam/1203/04 H5N1 (Influenza A virus A/VietNam/1203/2004(H5N1)). In words: microarray, transfection SN IgG, trimeric HA.
Assay [11] has as its target recombinant soluble homotrimeric HA, A/chicken/Vietnam/NCVD-016/08 H5N1 (Influenza A virus A/chicken/Vietnam/NCVD-016/2008(H5N1)). In words: microarray, transfection SN IgG, trimeric HA.
The target in assay [12] is recombinant soluble homotrimeric HA, A/northern shoveler/California/HKWF115/07 H6N4 (Influenza A virus A/northern shoveler/California/HKWF115/2007(H6N1)). In words: microarray, transfection SN IgG, trimeric HA.
For assay [13], the target named is recombinant homotrimeric HA A/swine/Ontario/01911-2/99 H4N6 (Influenza A virus A/Swine/Ontario/01911-2/99 (H4N6)). In words: protein microarray, purified IgG, trimeric HA.
In assay [14] the target is recombinant soluble homotrimeric HA of A/Anhui/1/05 (H5N1) (Influenza A virus A/Anhui/1/2005(H5N1)). The experiment in a line: trimeric HA microarray, transfection supernatant set 2.
Assay [15] deals with recombinant soluble homotrimeric HA of A/California/4/09 (H1N1) (Influenza A virus A/California/04/2009(H1N1)). The assay is described as above.
The target in assay [16] is T1, recombinant soluble homotrimeric HA of …. The description is as above.
Assay [17] has as its target recombinant soluble homotrimeric HA of A/Indonesia/5/05 (H5N1) (Influenza A virus A/Indonesia/5/2005(H5N1)). Described as above.
In assay [18] the target is recombinant soluble homotrimeric HA of A/Japan/305/57 (H2N2) (Influenza A virus A/Japan/305/1957(H2N2)). Described as above.
Assay [19] deals with recombinant soluble homotrimeric HA of A/Netherlands/219/03 (H7N7) (Influenza A virus A/Netherlands/219/03(H7N7)). The description is as above.
The target in assay [20] is recombinant soluble homotrimeric HA of A/Solomon Islands/3/06 (H1N1) (Influenza A virus A/Solomon Islands/3/2006(H1N1)). The assay is described as above.
Assay [21] has as its target recombinant soluble homotrimeric HA of A/South Carolina/1/18 (H1N1) (Influenza A virus A/South Carolina/1/18 (H1N1)). Described as above.
Assay [22] addresses T2, recombinant soluble homotrimeric HA of A/Vietnam/1203/04 (H5N1) (Influenza A virus A/VietNam/1203/2004(H5N1)). The assay is described as above.
In assay [23] the target is recombinant soluble homotrimeric HA of A/chicken/Vietnam/NCVD-016/08 (H5N1) (Influenza A virus A/chicken/Vietnam/NCVD-016/2008(H5N1)). Described as above.
The target of assay [24] is T2, recombinant soluble homotrimeric HA of …. In words: trimeric HA microarray, transfection supernatant set 3.
For assay [25], the target named is recombinant homotrimeric HA A/duck/Yangzhou/02/05 H8N4 (Influenza A virus A/duck/Yangzhou/02/2005(H8N4)). In words: protein microarray, purified IgG, trimeric HA.
Assay [26] addresses recombinant soluble homotrimeric HA, A/Wisconsin/67/05 H3N2 (Influenza A virus A/Wisconsin/67/2005(H3N2)). The experiment in a line: microarray, transfection SN IgG, trimeric HA.
In assay [27] the target is recombinant soluble homotrimeric HA, A/duck/Yangzhou/02/05 H8N4 (Influenza A virus A/duck/Yangzhou/02/2005(H8N4)). The experiment in a line: microarray, transfection SN IgG, trimeric HA.

B1: TCN-523 (5248_A17) (antibody, V domains shown)
VH: QVQLVQSGAEVKKPGSSVKVSCKASGGSFSNYAFSWVRQAPGQGLEWMGGTIPLLGTTNYAQKFQGRVTISADQFTSTAYMELGSLRSEDTAVYYCTRRKMTTAFDSWGQGTLVTVSS
VL: QPVLTQPPSASASLGASVTLTCTLSSAYSNYKVDWYQQRPGKGPRFVMRVGTGGIVGSKGDGIPDRFSVLGSGLNRYLTIKNIQEEDESDYHCGADHGSGSNFVSPYVFGGGTKLTVL
As to B1, the Trimeric HA Binding: RLU in assay [1] is 36500 RLU; in assay [2] it was 6080 RLU; in assay [3], 34400 RLU; in assay [4] it was 35500 RLU; in [5], 28400 RLU; in assay [6] it was 55000 RLU. Further, the Trimeric HA Binding: RLU in [7] amounted to 22000 RLU; in assay [8], 37600 RLU; in assay [9], 52000 RLU; in assay [10] it was 27800 RLU; in assay [11], 51300 RLU; in assay [12] it was 46900 RLU. The Trimeric HA Binding: RLU turned out to be 85 RLU in assay [13]; 139 RLU in assay [14]; 18700 RLU in assay [15]; 30700 RLU in [16]; 24500 RLU in [17]; 882 RLU in assay [18]. The Trimeric HA Binding: RLU in assay [19] was 407 RLU; in [20], 3270 RLU; in [21] it was 25500 RLU; in assay [22], 26200 RLU; in assay [23], 17600 RLU; in [24], 22100 RLU.

B2: TCN-530 (5248_H10a) (antibody, V domains shown)
VH: QVQLVQSGAEVRKPGSSVKVSCKASGGPFMSYAIGWVRQAPGQGLEWMGGINPVFGRPHYAQKFQGRVTIATDDSTKTSYMELSSLTSEDTGMYYCASRYSRSSPGTFESWGQGTLVTVSS
VL: EIVMTQFPATLSVSPGERVTLSCRASQSVSNNLAWYQQKPGQPPRLLIYDASTRATGVPAKFSGTGSGTEFTLSISSLQSEDFAVYYCQQYHNWPPSYSFGLGTKLEIK
B2: the Trimeric HA Binding: RLU was 30400 RLU in assay [1], 158 RLU in [25], 139 RLU in [13] and 25200 RLU in [24].

B3: TCN-504 (3251_K17) (antibody, V domains shown)
VH: QVQLQESGPGLVKPSETLSLTCAVSGVSISNIDFYWGWIRQPPGKGLEWIGNIYYTGITFYNPSLSSRVAISIDTSKNQFSLTLTSVTAADTAMYYCARHYGDSEAINDAFDIWGQGTMLTVSS
VL: EIVMTQSPATLSVSPGERATLSCRASQSVGNSLAWYQQRPGQAPRLLIYGASTRATGIPPRFSGSGSGTEFTLTISSLQTEDFAVYYCQQYINWRPLSFGGGTKVEIK
Consider B3, for which the Trimeric HA Binding: RLU came to 37200 RLU in [2]; 17600 RLU in assay [3]; 20600 RLU in [4]; 26600 RLU in assay [5]; 18500 RLU in assay [6]; 23300 RLU in assay [7]. Moreover, the Trimeric HA Binding: RLU in [8] came out at 30100 RLU; in assay [9] it was 32000 RLU; in [10], 21500 RLU; in assay [26], 38100 RLU; in assay [11], 34200 RLU; in [27], 35100 RLU. Besides, the Trimeric HA Binding: RLU was determined as 31000 RLU in assay [14]; 15600 RLU in assay [15]; 21400 RLU in assay [16]; 19700 RLU in [17]; 22600 RLU in assay [18]; 19300 RLU in assay [19]. For the same molecule, the Trimeric HA Binding: RLU in [20] was found to be 31400 RLU; in [21], 24700 RLU; in assay [22], 15000 RLU; in assay [23] it was 27300 RLU; in [24], 13300 RLU.

Values taken from patent US20150086555A1.
